Results taken from US20120020912A1 (WISCONSIN ALUMNI RESEARCH FOUNDATION, published 2012).

B1: AR677 peptide (peptide)
peptide: VLEAIEPGV
notes: Synthetic 9-mer derived from the AR LBD
B2: AR862 peptide (peptide)
peptide: KLLDSVQPI
notes: as for B1
B3: AR700 peptide (peptide)
peptide: ALLSSLNEL
notes: as for B1
B4: AR708 peptide (peptide)
peptide: LGERQLVHVV
notes: Synthetic 10-mer derived from the AR LBD
B5: AR742 peptide (peptide)
peptide: WMGLMVFAM
notes: as for B1
B6: AR761 peptide (peptide)
peptide: RMLYFAPDLV
notes: Synthetic 10-mer
B7: AR805 peptide (peptide)
peptide: FLCMKALLL
notes: Synthetic 9-mer
B8: AR811 peptide (peptide)
peptide: LLLFSIIPV
notes: Synthetic 9-mer
B9: AR814 peptide (peptide)
peptide: FSIIPVDGL
notes: as for B1
B10: AR859 peptide (peptide)
peptide: QLTKLLDSV
notes: Synthetic 9-mer

Biological target: T1, HLA-A2 on T2 cells (human)
T1 construct: whole, on cells; MHC class I molecule on T2 cells
Assay: T2 binding assay: T2 cells pulsed with 50 ug/mL peptide overnight, surface HLA-A2 by flow cytometry (BB7.2)
Protocol: T2 Binding Assay: After passing T2 cells into fresh media the day before the assay, these cells were pulsed with 50 μg/mL peptide overnight at 37° C./5% CO₂.

| Binder | In Vitro HLA-A2 Expression (Relative Mean Flourescent Intensity) |
| --- | --- |
| B1 | 1.37 ratio to unloaded T2 cells |
| B2 | 1.65 ratio to unloaded T2 cells |
| B3 | 2.66 ratio to unloaded T2 cells |
| B4 | 1.16 ratio to unloaded T2 cells |
| B5 | 1.32 ratio to unloaded T2 cells |
| B6 | 2.15 ratio to unloaded T2 cells |
| B7 | 2.19 ratio to unloaded T2 cells |
| B8 | 2.54 ratio to unloaded T2 cells |
| B9 | 1.01 ratio to unloaded T2 cells |
| B10 | 1.33 ratio to unloaded T2 cells |
